Data from patent US20250375499A1 (FLAGSHIP PIONEERING INNOVATIONS VII, published 2025).
Where two headings read alike, the source gives them in different places. Each block holds one binder with its values, some of them ahead of it.

B1: recombinant human LIGHT (Acro Bio LIT-H5242) (ligand)
chain: LIQERRSHEVNPAAHLTGANSSLTGSGGPLLWETQLGLAFLRGLSYHDGALVVTKAGYYYIYSKVQLGGVGCPLGLASTITHGLYKRTPRYPEELELLVSQQSPCGRATSSSRVWWDSSFLGGVVHLEAGEKVVVRVLDERLVRLRDGTRSYFGAFMV
notes: Bought protein; also called hLIGHT; Tumor Necrosis Factor Ligand Superfamily Member 14
B2: recombinant human TL1A (Acro Bio TLA-H5244), plate bound (ligand)
chain: LKGQEFAPSHQQVYAPLRADGDKPRAHLTVVRQTPTQHFKNQFPALHWEHELGLAFTKNRMNYTNKFLLIPESGDYFIYSQVTFRGMTSECSEIRQAGRPNKPDSITVVITKVTDSYPEPTQLLMGTKSVCEVGSNWFQPIYLGAMFSLQEGDKLMVNVSDISLVDYTKEDKTFFGAFLL
notes: Bought protein; also called hTL1A; Tumor Necrosis Factor Ligand Superfamily Member 15
B4: recombinant human FASL (Acro Bio HAL-H5241) (ligand)
chain: PSPPPEKKELRKVAHLTGKSNSRSMPLEWEDTYGIVLLSGVKYKKGGLVINETGLYFVYSKVYFRGQSCNNLPLSHKVYMRNSKYPQDLVMMEGKMMSYCTTGQMWARSSYLGAVFNLTSADHLYVNVSELSLVNFEESQTFFGLYKL
notes: Bought protein; also called hFASL; FAS Ligand

Columns and labels:
TNFR2 ECD-Fc [1] = molecular target: T1, TNFR2 ECD-Fc (human, UniProt P20333); assay: ELISA: plate coated with recombinant human LIGHT (2 µg/mL), Fc-tagged protein titrated 3-fold from 10 nM, anti-human Fc HRP, OD 450 nm background subtracted
T1 construct: Fc region, C-terminal fusion partner; also called TNFR2 ECD-hFc; Ichor Bio ICH4022
T1 sequence (TNFR2 ECD-Fc fusion chain): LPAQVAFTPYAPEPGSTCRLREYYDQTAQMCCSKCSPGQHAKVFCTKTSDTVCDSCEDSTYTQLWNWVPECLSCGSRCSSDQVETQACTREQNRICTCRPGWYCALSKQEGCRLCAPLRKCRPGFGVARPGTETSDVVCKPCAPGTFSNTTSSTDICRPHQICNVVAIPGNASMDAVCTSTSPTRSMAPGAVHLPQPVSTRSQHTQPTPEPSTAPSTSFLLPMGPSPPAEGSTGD
Protocol: (§1) Briefly, Maxisorp 384 well plates (Thermo Nunc Cat #P6366-1CS) were coated with 25 μL of 2 μg/mL of recombinant human TNFSF ligands: TNFα (Acro Bio TNA-H5228), TL1A (Acro Bio TLA-H5244), FASL (Acro Bio HAL-H5241), or LIGHT (Acro Bio LIT-H5242) in PBS or were coated with PBS alone overnight at 4° C. The plates were washed 3 times with 0.1% PBS-T and incubated with SuperBlock blocking buffer (Thermo Fisher 37515) for 1 hour at room temperature with shaking at 400 RPM. […] Plates were incubated for 1 hour at room temperature with shaking at 400 RPM. ELISA plates were washed 3 times with 0.1% PBS-T and incubated with an anti-human Fc HRP conjugated secondary antibody (ThermoFisher Scientific Cat #H10307) 1:2000 in 0.1% PBS-T for 1 hour at room temperature with shaking at 400 RPM. The plates were washed 3 times with 0.1% PBS-T and incubated with 20 μL of TMB (ThermoFisher Scientific Cat #34028) per well. The reaction was stopped at 5 minutes by adding 20 μL of Stop Solution (BioFX LSTP-1000-01). […] Blank subtracted ODs were calculated by subtracting the ODs from the blank plate from the readings from each of the ligand plates and data was plotted using PRISM (version 10.0.2).

TNFR2 ECD-Fc [2] = molecular target: T1, TNFR2 ECD-Fc; assay: ELISA: plate coated with recombinant human TL1A (2 µg/mL), Fc-tagged protein titrated 3-fold from 10 nM, anti-human Fc HRP, OD 450 nm background subtracted
Protocol: as §1

[3] = molecular target: B4; assay: ELISA: plate coated with recombinant human FASL (2 µg/mL), Fc-tagged protein titrated 3-fold from 10 nM, anti-human Fc HRP, OD 450 nm background subtracted
Protocol: as §1

[4] = molecular target: B1; assay: ELISA: plate coated with recombinant human LIGHT (2 µg/mL), Fc-tagged protein titrated 3-fold from 10 nM, anti-human Fc HRP, OD 450 nm background subtracted
Protocol: as §1

[5] = molecular target: B4; assay: ELISA: plate coated with recombinant human FASL (2 µg/mL), Fc-tagged protein titrated 3-fold from 10 nM, anti-human Fc HRP, OD 450 nm background subtracted; remark: listed apart in the source
Protocol: as §1

[6] = molecular target: B2; assay: ELISA: plate coated with recombinant human TL1A (2 µg/mL), Fc-tagged protein titrated 3-fold from 10 nM, anti-human Fc HRP, OD 450 nm background subtracted
Protocol: as §1

[7] = molecular target: B2; assay: as above; remark: listed apart in the source
Protocol: as §1

[8] = molecular target: B2; assay: as above; remark: listed apart in the source
Protocol: as §1

[9] = molecular target: B1; assay: ELISA: plate coated with recombinant human LIGHT (2 µg/mL), Fc-tagged protein titrated 3-fold from 10 nM, anti-human Fc HRP, OD 450 nm background subtracted; remark: listed apart in the source
Protocol: as §1

[10] = molecular target: B1; assay: as above; remark: listed apart in the source
Protocol: as §1

[11] = molecular target: B4; assay: ELISA: plate coated with recombinant human FASL (2 µg/mL), Fc-tagged protein titrated 3-fold from 10 nM, anti-human Fc HRP, OD 450 nm background subtracted; remark: listed apart in the source
Protocol: as §1

[12] = molecular target: B1; assay: ELISA: plate coated with recombinant human LIGHT (2 µg/mL), Fc-tagged protein titrated 3-fold from 10 nM, anti-human Fc HRP, OD 450 nm background subtracted; remark: listed apart in the source
Protocol: as §1

[13] = molecular target: B4; assay: ELISA: plate coated with recombinant human FASL (2 µg/mL), Fc-tagged protein titrated 3-fold from 10 nM, anti-human Fc HRP, OD 450 nm background subtracted; remark: listed apart in the source
Protocol: as §1

[14] = molecular target: B2; assay: ELISA: plate coated with recombinant human TL1A (2 µg/mL), Fc-tagged protein titrated 3-fold from 10 nM, anti-human Fc HRP, OD 450 nm background subtracted; remark: listed apart in the source
Protocol: as §1

[15] = molecular target: B4; assay: ELISA: plate coated with recombinant human FASL (2 µg/mL), Fc-tagged protein titrated 3-fold from 10 nM, anti-human Fc HRP, OD 450 nm background subtracted; remark: listed apart in the source
Protocol: as §1

[16] = molecular target: B1; assay: ELISA: plate coated with recombinant human LIGHT (2 µg/mL), Fc-tagged protein titrated 3-fold from 10 nM, anti-human Fc HRP, OD 450 nm background subtracted; remark: listed apart in the source
Protocol: as §1

[17] = molecular target: B2; assay: ELISA: plate coated with recombinant human TL1A (2 µg/mL), Fc-tagged protein titrated 3-fold from 10 nM, anti-human Fc HRP, OD 450 nm background subtracted; remark: listed apart in the source
Protocol: as §1

TNFR2 ECD-Fc [18] = molecular target: T1, TNFR2 ECD-Fc; assay: ELISA: plate coated with recombinant human FASL (2 µg/mL), Fc-tagged protein titrated 3-fold from 10 nM, anti-human Fc HRP, OD 450 nm background subtracted
Protocol: as §1

Binder: B1
binding result (TNFR2 ECD-Fc [1]): no binding (tested: 10 nM (LOG[Dose] 1))

Binder: B2
binding result (TNFR2 ECD-Fc [2]): no binding (tested: 10 nM (LOG[Dose] 1))

EC50 (read off the curve) [3]: ~0.1 nM | EC50 (read off the curve) [4]: ~0.2 nM | EC50 (read off the curve) [5]: ~0.1 nM | EC50 (read off the curve) [6]: ~0.1 nM | EC50 (read off the curve) [7]: ~0.1 nM | EC50 (read off the curve) [8]: ~0.1 nM | EC50 (read off the curve) [9]: ~0.2 nM | EC50 (read off the curve) [10]: ~0.2 nM | EC50 (read off the curve) [11]: ~0.1 nM | EC50 (read off the curve) [12]: ~0.2 nM | EC50 (read off the curve) [13]: ~0.1 nM | EC50 (read off the curve) [14]: ~0.1 nM | EC50 (read off the curve) [15]: ~0.1 nM | EC50 (read off the curve) [16]: ~0.2 nM | EC50 (read off the curve) [17]: ~0.1 nM
B3: DcR3-hFc (Fc fusion)
chain: VAETPTYPWRDAETGERLVCAQCPPGTFVQRPCRRDSPTTCGPCPPRHYTQFWNYLERCRYCNVLCGEREEEARACHATHNRACRCRTGFFAHAGFCLEHASCPPGAGVIAPGTPSQNTQCQPCPPGTFSASSSSSEQCQPHRNCTALGLALNVPGSSSHDTLCTSCTGFPLSTRVPGAEECERAVIDFVAFQDISIKRLQRLLQALEAPEGWGPTPRAGRAALQLKLRRRLTELLGAQDGALLVRLLQALRVARMPGLERSVRERFLPVH
notes: also called Acro Bio TNB-H5255; not shown: The hIgG1 Fc at the C-terminus, and any linker, of the vendor reagent Acro Bio TNB-H5255

Binder: B4
binding result (TNFR2 ECD-Fc [18]): no binding (tested: 10 nM (LOG[Dose] 1))
